Assay results published in patent publication US20260001928A1 (CORTERIA PHARMACEUTICALS, priority 2022, published 2026).
Values belong to the binder of their own block, whether it stands above or below them. *1 amine or outer side, *2 acyl side, *3 side chain or, on linkers, in order; H or OH if unused. Side-chain parts run from the residue outwards. [ ]: non-standard residue; d: D form. The star is where a group is joined. C16 diacid = O=C(O)CCCCCCCCCCCCCCC(=O)*; γGlu = O=C(O)[C@H](CCC(=O)[*:2])N[*:1]; Aib = CC(C)(N)C(=O)O

Experiments:
CRF1R receptor = molecular target: T1, CRF1R receptor (UniProt P34998 24-415, limits assumed); assay: cell-based or functional assay
T1 sequence (looked up): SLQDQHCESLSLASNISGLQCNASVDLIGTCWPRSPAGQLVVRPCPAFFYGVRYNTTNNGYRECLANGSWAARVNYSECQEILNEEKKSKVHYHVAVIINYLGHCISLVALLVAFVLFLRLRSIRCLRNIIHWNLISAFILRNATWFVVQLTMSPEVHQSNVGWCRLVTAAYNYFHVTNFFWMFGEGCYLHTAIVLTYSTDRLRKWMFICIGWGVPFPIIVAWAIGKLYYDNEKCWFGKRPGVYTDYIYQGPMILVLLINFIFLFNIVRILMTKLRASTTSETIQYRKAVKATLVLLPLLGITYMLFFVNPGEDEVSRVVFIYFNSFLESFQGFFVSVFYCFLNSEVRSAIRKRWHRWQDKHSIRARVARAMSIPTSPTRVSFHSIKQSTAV

[1] = molecular target: human corticotropin-releasing factor 2a (CRF2a receptor) (human), Q13324; assay: cell-based or functional assay
Sequence of human corticotropin-releasing factor 2a (CRF2a receptor) (human), Q13324 (Q13324 20-411): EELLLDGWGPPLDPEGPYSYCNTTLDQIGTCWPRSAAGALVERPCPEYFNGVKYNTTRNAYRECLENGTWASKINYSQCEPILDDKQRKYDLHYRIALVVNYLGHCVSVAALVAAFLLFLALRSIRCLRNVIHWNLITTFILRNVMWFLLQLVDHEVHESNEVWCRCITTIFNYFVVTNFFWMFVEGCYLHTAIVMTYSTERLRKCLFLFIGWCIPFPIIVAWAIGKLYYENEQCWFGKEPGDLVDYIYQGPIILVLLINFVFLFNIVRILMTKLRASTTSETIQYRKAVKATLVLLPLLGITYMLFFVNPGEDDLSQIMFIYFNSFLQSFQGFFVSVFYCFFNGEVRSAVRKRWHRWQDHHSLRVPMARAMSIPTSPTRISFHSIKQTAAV

EC50 (CRF1R receptor): 95.4 nM
Emax (% I) (CRF1R receptor): 63%
EC50 [nM] (cAMP) [1]: 0.07 nM
B1: SEQ ID NO 2 (peptide)
peptide: Ac-IVLSLD[dV]PIKLK([γGlu-C16 diacid])QILLKQERQKKQREQAEKNKQILEQV-NH2
SMILES: CC[C@H](C)[C@H](NC(C)=O)C(=O)N[C@H](C(=O)N[C@@H](CC(C)C)C(=O)N[C@@H](CO)C(=O)N[C@@H](CC(C)C)C(=O)N[C@@H](CC(=O)O)C(=O)N[C@@H](C(=O)N1CCC[C@H]1C(=O)N[C@H](C(=O)N[C@@H](CCCCN)C(=O)N[C@@H](CC(C)C)C(=O)N[C@@H](CCCCNC(=O)CC[C@H](NC(=O)CCCCCCCCCCCCCCC(=O)O)C(=O)O)C(=O)N[C@@H](CCC(N)=O)C(=O)N[C@H](C(=O)N[C@@H](CC(C)C)C(=O)N[C@@H](CC(C)C)C(=O)N[C@@H](CCCCN)C(=O)N[C@@H](CCC(N)=O)C(=O)N[C@@H](CCC(=O)O)C(=O)N[C@@H](CCCNC(=N)N)C(=O)N[C@@H](CCC(N)=O)C(=O)N[C@@H](CCCCN)C(=O)N[C@@H](CCCCN)C(=O)N[C@@H](CCC(N)=O)C(=O)N[C@@H](CCCNC(=N)N)C(=O)N[C@@H](CCC(=O)O)C(=O)N[C@@H](CCC(N)=O)C(=O)N[C@@H](C)C(=O)N[C@@H](CCC(=O)O)C(=O)N[C@@H](CCCCN)C(=O)N[C@@H](CC(N)=O)C(=O)N[C@@H](CCCCN)C(=O)N[C@@H](CCC(N)=O)C(=O)N[C@H](C(=O)N[C@@H](CC(C)C)C(=O)N[C@@H](CCC(=O)O)C(=O)N[C@@H](CCC(N)=O)C(=O)N[C@H](C(N)=O)C(C)C)[C@@H](C)CC)[C@@H](C)CC)[C@@H](C)CC)C(C)C)C(C)C

Emax (% I) (CRF1R receptor): 5%
EC50 [nM] (cAMP) [1]: 0.96 nM
B2: SEQ ID NO 45 (peptide)
peptide: Ac-VLSLD[dV]PIKLK([γGlu-C16 diacid])KILLEQEKQKKQREQAETN[Aib]QILAQV-NH2
SMILES: CC[C@H](C)[C@H](NC(=O)[C@H](CCC(N)=O)NC(=O)C(C)(C)NC(=O)[C@H](CC(N)=O)NC(=O)[C@@H](NC(=O)[C@H](CCC(=O)O)NC(=O)[C@H](C)NC(=O)[C@H](CCC(N)=O)NC(=O)[C@H](CCC(=O)O)NC(=O)[C@H](CCCNC(=N)N)NC(=O)[C@H](CCC(N)=O)NC(=O)[C@H](CCCCN)NC(=O)[C@H](CCCCN)NC(=O)[C@H](CCC(N)=O)NC(=O)[C@H](CCCCN)NC(=O)[C@H](CCC(=O)O)NC(=O)[C@H](CCC(N)=O)NC(=O)[C@H](CCC(=O)O)NC(=O)[C@H](CC(C)C)NC(=O)[C@H](CC(C)C)NC(=O)[C@@H](NC(=O)[C@H](CCCCN)NC(=O)[C@H](CCCCNC(=O)CC[C@H](NC(=O)CCCCCCCCCCCCCCC(=O)O)C(=O)O)NC(=O)[C@H](CC(C)C)NC(=O)[C@H](CCCCN)NC(=O)[C@@H](NC(=O)[C@@H]1CCCN1C(=O)[C@H](NC(=O)[C@H](CC(=O)O)NC(=O)[C@H](CC(C)C)NC(=O)[C@H](CO)NC(=O)[C@H](CC(C)C)NC(=O)[C@@H](NC(C)=O)C(C)C)C(C)C)[C@@H](C)CC)[C@@H](C)CC)[C@@H](C)O)C(=O)N[C@@H](CC(C)C)C(=O)N[C@@H](C)C(=O)N[C@@H](CCC(N)=O)C(=O)N[C@H](C(N)=O)C(C)C
